In the RNAGym collection of RNA variant scans (doi:10.7554/elife.80360):

B1: HDV Ribozyme (parent)
chain: GGCCGGCAUGGUCCCAGCCUCCUCGCUGGCGCCGGCUGGGCAACAUUCCGAGGGGACCGUCCCCUCGGUAAUGGCGAAUGGGACCCA

Variants of: B1
Assay: self-cleavage, relative activity (ratio to wild type); higher = more cleavage; co-transcriptional

In order of rising self-cleavage:
1. GGCCGGCAUGGUCCCAGCCUCCUCGCUGGGGCCGGCUGGGCUACAUUCCGAGGGGACCGUCCCCUCGGUAAUGGCGAAUGGGACCCA [C30G A42U]  0
2. GGCCGGCAUGGUCCCAGCCUCCUCGCUGGCGCCGGCGGGGCAACAUUCCGAGGGGACCGUCCCCUCGGUAAUGGCGAAUGAGACCCA [U37G G81A]  0
3. GGCCGGCAUGGUCCCAGCCUCCUCGCUGGCGCAGGCUGGGCAACAUUCCGAGGGGACCGUCCCCUCGCUAAUGGCGAAUGGGACCCA [C33A G68C]  0.0449
4. GGCCGGCAUGGUCCCAGACUCCUCGCUGGCACCGGCUGGGCAACAUUCCGAGGGGACCGUCCCCUCGGUAAUGGCGAAUGGGACCCA [C18A G31A]  0.0898
5. GGCCGGCAUGGUCCCAGCCUGCUCGCUGGCGCCGGCUGGGCAACAUUCCGAGGGGACCGUCCCCUCCGUAAUGGCGAAUGGGACCCA [C21G G67C]  0.0978
6. GGCCGGCAUGGUCCCAGCCUCGUUGCUGGCGCCGGCUGGGCAACAUUCCGAGGGGACCGUCCCCUCGGUAAUGGCGAAUGGGACCCA [C22G C24U]  0.104
7. GGCCGGCAUGGUCGCAGCCUCCUCGCUGGCGCCGGCUGGGCAACAUUCCGAGGGGACCGUCCCCUCGGUAAUGGCGACUGGGACCCA [C14G A78C]  0.108
8. GGCCGGCAUGGUCCCAGCCUCCUCGCUGGCGCCGGCUGGGCAACAUUCCGGGGGGACCGUCCCCUCGGUAAUGGGGAAUGGGACCCA [A51G C75G]  0.128
9. GGCCGGCAUGGUCCCAGCCUCCUGGCUGGCGCCGGCUGGGCAACAUUUCGAGGGGACCGUCCCCUCGGUAAUGGCGAAUGGGACCCA [C24G C48U]  0.14
10. GGCCGGCAUGGUACCAGCCUCCUCGCUGGCGCCGGCUGGGCAACAUUCCGGGGGGACCGUCCCCUCGGUAAUGGCGAAUGGGACCCA [C13A A51G]  0.148
11. GGCCCGCAUGGUCCCACCCUCCUCGCUGGCGCCGGCUGGGCAACAUUCCGAGGGGACCGUCCCCUCGGUAAUGGCGAAUGGGACCCA [G5C G17C]  0.151
12. GGCCGGCAUGGUCCCAGCCUCCUCGCUGGCGCCGGCGGGGCAACAUACCGAGGGGACCGUCCCCUCGGUAAUGGCGAAUGGGACCCA [U37G U47A]  0.158
13. GGCCGGCAUGGUCCCAGCCUCCUCGCUGGCGCCUGCUGGGCAACAUUCCGAGGGGACCGUCCCCUCGGUUAUGGCGAAUGGGACCCA [G34U A70U]  0.182
14. GGCCGGCAUGGUCCCAGCCUCCUCGCUGGCGCCGGCUGGGCAACAUUCCGAGGGGACCGUCGCCUCGGUAAUUGCGAAUGGGACCCA [C62G G73U]  0.193
15. GACCGGCAUGGUCCCAGCCUCCUCGCUGGCGCCGGCUGGGCAACAUUCCGAGGGGACCGUCCCCUAGGUAAUGGCGAAUGGGACCCA [G2A C66A]  0.194
16. GGCCGGCAUGGUCCCAGCCUCCUCGCUGGCGCCGACUGGGCAACAUUCCGAGGGGACCGUCCCCUCGGUAAAGGCGAAUGGGACCCA [G35A U72A]  0.208
17. GGCCGGCAUGGUCCCAGCCUUCUCGCUGGCGCCGGCUGGGCAACAUUCCAAGGGGACCGUCCCCUCGGUAAUGGCGAAUGGGACCCA [C21U G50A]  0.253
18. GGCCGGCAUGGUCCCAGCCUCCUCGCUGGCGCCGGCUGGGCAACAUUCCGAGGGGACCGUACCCUCGGUAAUGGCGAAUGAGACCCA [C61A G81A]  0.354
19. GGCCGGCAUGGUCCCAGCCUCCUCGCUGGCGCCGGCUGGGCCACGUUCCGAGGGGACCGUCCCCUCGGUAAUGGCGAAUGGGACCCA [A42C A45G]  0.465
20. GGCUGGCAUGGUCCCAGCCUCCUCGCUGGCGCCGGCUGGGCAACAUUCCGAGGGGACCGUCCCCUCGGUACUGGCGAAUGGGACCCA [C4U A71C]  0.499
21. GGCCGGCAUGGUCCCAGCCUCCUCGCUGGCGCCGGCUGGGCAACAUUCCGAGGGGACCGUCACCUCGGUAAUAGCGAAUGGGACCCA [C62A G73A]  0.545
22. GGCCGGCAUGGUCCCAGCCUCCUCGCUGGCGCCGGUUGGGCAACAUUCCGAGGGGACCGUCCCCUCGCUAAUGGCGAAUGGGACCCA [C36U G68C]  0.563
23. GGCCGGCAUGGUCCCAGCCUCCUCGCUGGCGCCGGCUGGGCAACAUUCCGAGGGGUCCGUCCCCUCGGUAAUGGCGAAAGGGACCCA [A56U U79A]  0.569
24. GGGCGGCAUGGUCCCAGCCUCCUCGCUGGCGCCGGCUGGACAACAUUCCGAGGGGACCGUCCCCUCGGUAAUGGCGAAUGGGACCCA [C3G G40A]  0.575
25. GGCCGGCAUGGUCCCAGCCUCCUCGCUGGCGCCGGCUGGGCAACAUCCCGAGGGGACCGUGCCCUCGGUAAUGGCGAAUGGGACCCA [U47C C61G]  0.65
26. GGCCGGCAUGGUCUCAGCCUCCGCGCUGGCGCCGGCUGGGCAACAUUCCGAGGGGACCGUCCCCUCGGUAAUGGCGAAUGGGACCCA [C14U U23G]  0.712
27. GGUCGGCAUCGUCCCAGCCUCCUCGCUGGCGCCGGCUGGGCAACAUUCCGAGGGGACCGUCCCCUCGGUAAUGGCGAAUGGGACCCA [C3U G10C]  0.762
28. GGCCGGCAUGGUCCCAGCCUCCUCGCUGGCGCCGGCUGGGCUACAUUCCGAGGGGACCGUCCCCUCGGUAAUGGCAAAUGGGACCCA [A42U G76A]  0.764
29. GGCCGGCAUGGUCCCAGCCUCCUCGCUGGCGCCGGCUGGGCAACAUUCCGGGGGGACCGUCCCCUCGGUAAUGGCGAAUGGGACCCU [A51G A87U]  0.952
30. GGCCGGCAUGGUCCCAGCCUCCUCGCUGGCGUCGGCUGGGCAACAUUCCGAGGGGACCAUCCCCUCGGUAAUGGCGAAUGGGACCCA [C32U G59A]  0.963
31. GGCCGGCAUGGUCCCAGCCUCCUCGCUGGCGCCGGCUGGGCAACAUUCCGAGGGGACCGUCACCUCGGUAAUGGCGAAUGGGACCCU [C62A A87U]  0.984
32. GGCCGGCAUGGUCUCAGCCUCCUCGCUGGCGCCGGCUGGGCAACAUUCCGAGCGGACCGUCCCCUCGGUAAUGGCGAAUGGGACCCA [C14U G53C]  1.07
